# Residue numbers refer to the chain shown, from its start.
# B1: CCL16_HUMAN (ligand)
# chain: QPKVPEWVNTPSTCCLKYYEKVLPRRLVVGYRKALNCHLPAIIFVTKRNREVCTNPNDDWVQEYIKDPNLPLLPTRNLSTVKIITAKNGQPQLLNSQ
# B2: CCL4L1_HUMAN (ligand)
# chain: APMGSDPPTACCFSYTARKLPRNFVVDYYETSSLCSQPAVVFQTKRGKQVCADPSESWVQEYVYDLELN
# B3: CCL4_HUMAN (ligand)
# chain: B2 chain with G47S
# B4: CCL3_HUMAN (ligand)
# chain: SLAADTPTACCFSYTSRQIPQNFIADYFETSSQCSKPGVIFLTKRSRQVCADPSEEWVQKYVSDLELSA
# B5: CCL15_HUMAN (ligand)
# chain: QFTNDAETELMMSKLPLENPVVLNSFHFAADCCTSYISQSIPCSLMKSYFETSSECSKPGVIFLTKKGRQVCAKPSGPGVQDCMKKLKPYSI
# B6: P1104_IXORI (other)
# chain: ESKEASASQGPGKSFKVEFCETNCTENNGVWSGCTGDCICVSVGDSKEGRCMDLGDKVIDTPVAQG
# B7: P1162_IXORI (other)
# chain: LNDEELFTVDYCGTNCTQQPNGSWTTCPGNCSCYHEDGKTDGFCLSTEYTDFTQFPNLTSEEMDAATPRPE
# B8: P1229_IXORI (other)
# chain: DDEFFTVDYCGMNCTLQQDGSWTPCTQKNAECKCYHESGSSVGLCLSTAYTDFNQFGDPNNSDLDAATPRHPDASSR
# B9: P1077_IXORI (other)
# chain: GSKQLIGPQSSTNSIKAEFCDTNCTAGTNGIWNGCSGDCFCTHVGNSTEGRCMKITGFDEYPTSEAEE
# B10: CCL11_HUMAN (ligand)
# chain: not shown
# Target: T1, P1243_AMBAM (Amblyomma americanum, UniProt A0A0C9S461 26-123)
# T1 sequence: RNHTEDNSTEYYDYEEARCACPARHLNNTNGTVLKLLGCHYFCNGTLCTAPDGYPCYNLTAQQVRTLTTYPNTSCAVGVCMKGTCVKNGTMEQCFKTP
# Test: BLI
row,Binder,Kd [nM]
1,B1,0.925
2,B2,35.4
3,B3,15.3
4,B4,5.3
5,B5,9.61

# Target: CXCL12_HUMAN (human, UniProt P48061 22-89)
# Sequence (P48061 22-89 limits assumed): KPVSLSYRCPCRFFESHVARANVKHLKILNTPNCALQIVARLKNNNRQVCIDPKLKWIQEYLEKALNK
# Test: BLI
Binder,Kd [nM],binding result
B6,67.8,
B7,,no binding (tested: 300 nM)
B8,,no binding (tested: 300 nM)
B9,,no binding (tested: 300 nM)

# Target: T2, CXCL9_HUMAN (human, UniProt Q07325 23-125)
# T2 sequence: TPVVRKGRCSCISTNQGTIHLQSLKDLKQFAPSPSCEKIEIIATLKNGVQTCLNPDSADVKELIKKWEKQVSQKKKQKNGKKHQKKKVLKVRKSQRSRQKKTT
# Test: BLI
row,Binder,binding result
1,B6,no binding (tested: 300 nM)
2,B7,no binding (tested: 300 nM)
3,B8,no binding (tested: 300 nM)
4,B9,no binding (tested: 300 nM)

# Target: T3, CXCL13_HUMAN (human, UniProt O43927 23-109)
# T3 sequence: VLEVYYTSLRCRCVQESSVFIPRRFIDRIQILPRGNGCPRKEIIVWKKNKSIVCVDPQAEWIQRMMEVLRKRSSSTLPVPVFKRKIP
# Test: BLI
Binder,Kd [nM],binding result
B6,220,
B7,,no binding (tested: 300 nM)
B8,,no binding (tested: 300 nM)
B9,,no binding (tested: 300 nM)

# Target: T4, CXCL14_HUMAN (human, UniProt O95715 35-111)
# T4 sequence: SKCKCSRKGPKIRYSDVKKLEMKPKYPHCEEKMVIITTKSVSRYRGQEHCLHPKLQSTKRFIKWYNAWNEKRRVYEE
# Test: BLI
row,Binder,binding result
1,B6,no binding (tested: 300 nM)
2,B7,no binding (tested: 300 nM)
3,B8,no binding (tested: 300 nM)
4,B9,no binding (tested: 300 nM)

# Target: T5, CXCL10_HUMAN (human, UniProt P02778 22-98)
# T5 sequence: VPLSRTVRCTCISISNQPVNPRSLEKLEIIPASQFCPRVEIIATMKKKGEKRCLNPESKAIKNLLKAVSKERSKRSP
# Test: BLI
row,Binder,binding result
1,B6,no binding (tested: 300 nM)
2,B7,no binding (tested: 300 nM)
3,B8,no binding (tested: 300 nM)
4,B9,no binding (tested: 300 nM)

# Target: T6, CXCL11_HUMAN (human, UniProt O14625 22-94)
# T6 sequence: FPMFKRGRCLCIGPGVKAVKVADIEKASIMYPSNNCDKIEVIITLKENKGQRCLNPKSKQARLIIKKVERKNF
# Test: BLI
row,Binder,binding result
1,B6,no binding (tested: 300 nM)
2,B7,no binding (tested: 300 nM)

# Target: T7, CXCL1_HUMAN (human, UniProt P09341 35-107)
# T7 sequence: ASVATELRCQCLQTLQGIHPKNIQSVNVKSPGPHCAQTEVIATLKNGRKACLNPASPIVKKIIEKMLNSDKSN
# Test: yeast surface display FACS re-test; further: test concentration or dose not given here
row,Binder,% cells over threshold fluorescence [%]
1,B6,65
2,B7,72
3,B8,66
4,B9,50

# Target: T8, P1181_AMBMA (Amblyomma maculatum, UniProt G3MIX6 26-115)
# T8 sequence: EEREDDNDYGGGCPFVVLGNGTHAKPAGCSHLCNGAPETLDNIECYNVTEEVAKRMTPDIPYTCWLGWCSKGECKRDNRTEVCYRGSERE
# Test: BLI
row,Binder,Kd [nM]
1,B2,35
2,B3,53
3,B4,2.2
4,B10,20

# Target: T9, P985_AMBPA (Amblyomma parvum, UniProt A0A023FT45 25-132)
# T9 sequence: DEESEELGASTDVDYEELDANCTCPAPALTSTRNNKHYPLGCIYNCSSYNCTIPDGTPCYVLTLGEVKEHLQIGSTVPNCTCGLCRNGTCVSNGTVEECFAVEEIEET
# Test: BLI
row,Binder,Kd [nM]
1,B1,45
2,B2,21
3,B3,46
4,B4,8.9
5,B10,8

# Target: T10, P546_AMBCA (Amblyomma cajennense, UniProt A0A023FBW7 22-118)
# T10 sequence: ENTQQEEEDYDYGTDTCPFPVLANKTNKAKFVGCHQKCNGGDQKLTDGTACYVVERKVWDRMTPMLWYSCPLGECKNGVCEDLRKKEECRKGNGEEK
# Test: BLI
row,Binder,Kd [nM]
1,B2,8.9
2,B3,27
3,B4,15
4,B10,8.7

# Target: T11, P983_AMBCA (Amblyomma cajennense, UniProt A0A023FFB5 22-119)
# T11 sequence: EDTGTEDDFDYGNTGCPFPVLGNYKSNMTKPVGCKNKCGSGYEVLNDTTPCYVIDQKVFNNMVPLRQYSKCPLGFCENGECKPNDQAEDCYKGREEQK
# Test: BLI
row,Binder,Kd [nM]
1,B2,2.9
2,B3,8
3,B4,3.5
4,B10,21

# Target: T12, P467_RHIPU (Rhipicephalus pulchellus, UniProt L7M8Z8 22-127)
# T12 sequence: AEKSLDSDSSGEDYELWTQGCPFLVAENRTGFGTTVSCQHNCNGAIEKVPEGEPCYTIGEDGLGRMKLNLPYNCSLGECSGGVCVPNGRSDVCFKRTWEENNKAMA
# Test: BLI
row,Binder,Kd [nM]
1,B1,14.1
2,B2,4.72
3,B3,13.6
4,B4,0.363
5,B10,1.4

# Target: T13, P672_RHIPU (Rhipicephalus pulchellus, UniProt L7MC74 22-125)
# T13 sequence: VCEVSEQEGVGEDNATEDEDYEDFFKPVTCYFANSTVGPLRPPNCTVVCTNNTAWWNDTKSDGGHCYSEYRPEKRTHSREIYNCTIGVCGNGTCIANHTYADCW
# Test: BLI
row,Binder,Kd [nM]
1,B1,3.3
2,B4,2.6
3,B5,32

# Target: T14, P974_AMBCA (Amblyomma cajennense, UniProt A0A023FDY8 22-118)
# T14 sequence: T10 sequence with E8Q, S69E, E88D
# Test: BLI
row,Binder,Kd [nM]
1,B2,23.2
2,B3,30.2
3,B4,7.97
4,B10,17

# Target: T1, P1243_AMBAM
# Test: BLI
# Remark: another data set of the same source
row,Binder,Kd [nM]
1,B1,0.926
2,B2,35.4
3,B3,15.3
4,B4,5.3
5,B5,9.61
6,B10,6.03

# Target: T15, P1182_AMBMA (Amblyomma maculatum, UniProt G3MJ83 27-115)
# T15 sequence: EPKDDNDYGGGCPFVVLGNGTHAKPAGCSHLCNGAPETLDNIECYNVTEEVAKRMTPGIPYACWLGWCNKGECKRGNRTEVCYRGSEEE
# Test: BLI
row,Binder,Kd [nM]
1,B2,92
2,B3,63
3,B4,5.4
4,B10,28

# Target: T16, P1183_AMBTR (Amblyomma triste, UniProt A0A023G9N9 26-115)
# T16 sequence: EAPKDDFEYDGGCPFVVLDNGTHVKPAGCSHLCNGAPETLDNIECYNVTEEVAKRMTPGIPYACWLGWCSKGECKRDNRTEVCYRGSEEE
# Test: BLI
row,Binder,Kd [nM]
1,B2,48
2,B3,78
3,B10,8.5

# Target: T17, P1180_AMBTR (Amblyomma triste, UniProt A0A023G6B6 26-116)
# T17 sequence: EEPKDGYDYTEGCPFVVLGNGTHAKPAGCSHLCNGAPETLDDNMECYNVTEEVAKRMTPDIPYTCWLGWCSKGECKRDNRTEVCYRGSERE
# Test: BLI
row,Binder,Kd [nM]
1,B2,20
2,B3,66
3,B4,1.1
4,B10,33

# Target: T18, P991_AMBCA (Amblyomma cajennense, UniProt A0A023FFD0 29-136)
# T18 sequence: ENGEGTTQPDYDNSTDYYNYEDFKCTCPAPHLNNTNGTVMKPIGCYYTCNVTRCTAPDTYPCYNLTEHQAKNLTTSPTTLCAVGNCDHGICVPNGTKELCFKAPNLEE
# Test: BLI
row,Binder,Kd [nM]
1,B1,1.28
2,B2,0.827
3,B3,5.82
4,B4,1.08
5,B5,159
6,B10,3.43

# Target: T19, CXCL7_HUMAN (human, UniProt P02775 59-128)
# T19 sequence: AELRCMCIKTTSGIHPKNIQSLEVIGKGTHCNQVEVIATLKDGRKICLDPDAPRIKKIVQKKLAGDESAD
# Test: BLI [Cont.]
row,Binder,binding result
1,B6,no binding (tested: 300 nM)
2,B9,no binding (tested: 300 nM)

# Target: T20, CXCL4_HUMAN (human, UniProt P02776 32-101)
# T20 sequence: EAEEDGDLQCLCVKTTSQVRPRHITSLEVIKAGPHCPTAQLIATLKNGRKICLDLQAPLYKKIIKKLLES
# Test: BLI [Cont.]
row,Binder,binding result
1,B6,no binding (tested: 300 nM)
2,B9,no binding (tested: 300 nM)

# Target: T21, CXCL8_HUMAN (human, UniProt P10145 28-99)
# T21 sequence: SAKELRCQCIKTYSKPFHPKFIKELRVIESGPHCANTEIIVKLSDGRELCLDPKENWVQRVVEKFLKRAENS
# Test: BLI [Cont.]
row,Binder,binding result
1,B6,no binding (tested: 300 nM)
2,B9,no binding (tested: 300 nM)

# Target: T22, CXCL6_HUMAN (human, UniProt P80162 38-114)
# T22 sequence: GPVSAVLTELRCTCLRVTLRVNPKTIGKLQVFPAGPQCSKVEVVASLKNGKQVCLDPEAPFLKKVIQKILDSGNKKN
# Test: BLI [Cont.]
row,Binder,binding result
1,B7,no binding (tested: 300 nM)
2,B8,no binding (tested: 300 nM)

# Reference: patent US20240034757A1 (OXFORD UNIVERSITY INNOVATION, published 2024)
